From US20180155451A1 (published 2018)

T1: FcγRIIa R (extracellular domain with a His tag at the C terminus) (human, UniProt P12318 34-217)
T1 construct: extracellular domain; expressed in FreeStyle293 cells; also called FcgRIIa R; FcγRIIa type R; not shown: His tag at the C terminus
T1 sequence (looked up): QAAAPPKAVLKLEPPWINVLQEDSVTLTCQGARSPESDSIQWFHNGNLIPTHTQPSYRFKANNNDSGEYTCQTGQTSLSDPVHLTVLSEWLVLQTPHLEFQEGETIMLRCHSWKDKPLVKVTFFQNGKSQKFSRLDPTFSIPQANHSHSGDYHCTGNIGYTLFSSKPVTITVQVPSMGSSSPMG

B1: GpH7-A5/GpH7-B3 variant P271_08L/GpL16-k0 (antibody, human IgG1, kappa)
heavy 1: not shown
heavy 2: not shown
light: DIVMTQSPLSLPVTPGEPASISCQASESLVHSNRNTYLHWYLQKPGQSPQLLIYKVSNRFSGVPDRFSGSGSGTDFTLKISRVEAEDVGVYYCSQNTHVPPTFGQGTKVEIERTVAAPSVFIFPPSDEQLKSGTASVVCLLNNFYPREAKVQWKVDNALQSGNSQESVTEQDSKDSTYSLSSTLTLSKADYEKHKVYACEVTHQGLSSPVTKSFNRGEC
notes: heterodimerized; mutation in one H chain; also called He Ab
B2: GpH7-A5/GpH7-B3 variant S267_09D/GpL16-k0 (antibody, human IgG1, kappa)
heavy 1: not shown
heavy 2: not shown
light: DIVMTQSPLSLPVTPGEPASISCQASESLVHSNRNTYLHWYLQKPGQSPQLLIYKVSNRFSGVPDRFSGSGSGTDFTLKISRVEAEDVGVYYCSQNTHVPPTFGQGTKVEIERTVAAPSVFIFPPSDEQLKSGTASVVCLLNNFYPREAKVQWKVDNALQSGNSQESVTEQDSKDSTYSLSSTLTLSKADYEKHKVYACEVTHQGLSSPVTKSFNRGEC
notes: as for B1
B3: GpH7-A5/GpH7-B3 variant S337_09D/GpL16-k0 (antibody, human IgG1, kappa)
heavy 1: not shown
heavy 2: not shown
light: DIVMTQSPLSLPVTPGEPASISCQASESLVHSNRNTYLHWYLQKPGQSPQLLIYKVSNRFSGVPDRFSGSGSGTDFTLKISRVEAEDVGVYYCSQNTHVPPTFGQGTKVEIERTVAAPSVFIFPPSDEQLKSGTASVVCLLNNFYPREAKVQWKVDNALQSGNSQESVTEQDSKDSTYSLSSTLTLSKADYEKHKVYACEVTHQGLSSPVTKSFNRGEC
notes: as for B1
B4: GpH7-A5/GpH7-B3 variant P331_15Y/GpL16-k0 (antibody, human IgG1, kappa)
heavy 1: not shown
heavy 2: not shown
light: DIVMTQSPLSLPVTPGEPASISCQASESLVHSNRNTYLHWYLQKPGQSPQLLIYKVSNRFSGVPDRFSGSGSGTDFTLKISRVEAEDVGVYYCSQNTHVPPTFGQGTKVEIERTVAAPSVFIFPPSDEQLKSGTASVVCLLNNFYPREAKVQWKVDNALQSGNSQESVTEQDSKDSTYSLSSTLTLSKADYEKHKVYACEVTHQGLSSPVTKSFNRGEC
notes: as for B1
B5: GpH7-A5/GpH7-B3 variant S337_16H/GpL16-k0 (antibody, human IgG1, kappa)
heavy 1: not shown
heavy 2: not shown
light: DIVMTQSPLSLPVTPGEPASISCQASESLVHSNRNTYLHWYLQKPGQSPQLLIYKVSNRFSGVPDRFSGSGSGTDFTLKISRVEAEDVGVYYCSQNTHVPPTFGQGTKVEIERTVAAPSVFIFPPSDEQLKSGTASVVCLLNNFYPREAKVQWKVDNALQSGNSQESVTEQDSKDSTYSLSSTLTLSKADYEKHKVYACEVTHQGLSSPVTKSFNRGEC
notes: as for B1
B6: GpH7-A5/GpH7-B3 variant S337_15Y/GpL16-k0 (antibody, human IgG1, kappa)
heavy 1: not shown
heavy 2: not shown
light: DIVMTQSPLSLPVTPGEPASISCQASESLVHSNRNTYLHWYLQKPGQSPQLLIYKVSNRFSGVPDRFSGSGSGTDFTLKISRVEAEDVGVYYCSQNTHVPPTFGQGTKVEIERTVAAPSVFIFPPSDEQLKSGTASVVCLLNNFYPREAKVQWKVDNALQSGNSQESVTEQDSKDSTYSLSSTLTLSKADYEKHKVYACEVTHQGLSSPVTKSFNRGEC
notes: as for B1
B7: GpH7-A5/GpH7-B3 variant S337_06M/GpL16-k0 (antibody, human IgG1, kappa)
heavy 1: not shown
heavy 2: not shown
light: DIVMTQSPLSLPVTPGEPASISCQASESLVHSNRNTYLHWYLQKPGQSPQLLIYKVSNRFSGVPDRFSGSGSGTDFTLKISRVEAEDVGVYYCSQNTHVPPTFGQGTKVEIERTVAAPSVFIFPPSDEQLKSGTASVVCLLNNFYPREAKVQWKVDNALQSGNSQESVTEQDSKDSTYSLSSTLTLSKADYEKHKVYACEVTHQGLSSPVTKSFNRGEC
notes: as for B1
B8: GpH7-A5/GpH7-B3 variant S267_03V/GpL16-k0 (antibody, human IgG1, kappa)
heavy 1: not shown
heavy 2: not shown
light: DIVMTQSPLSLPVTPGEPASISCQASESLVHSNRNTYLHWYLQKPGQSPQLLIYKVSNRFSGVPDRFSGSGSGTDFTLKISRVEAEDVGVYYCSQNTHVPPTFGQGTKVEIERTVAAPSVFIFPPSDEQLKSGTASVVCLLNNFYPREAKVQWKVDNALQSGNSQESVTEQDSKDSTYSLSSTLTLSKADYEKHKVYACEVTHQGLSSPVTKSFNRGEC
notes: as for B1
B9: GpH7-A5/GpH7-B3 variant S267_06M/GpL16-k0 (antibody, human IgG1, kappa)
heavy 1: not shown
heavy 2: not shown
light: DIVMTQSPLSLPVTPGEPASISCQASESLVHSNRNTYLHWYLQKPGQSPQLLIYKVSNRFSGVPDRFSGSGSGTDFTLKISRVEAEDVGVYYCSQNTHVPPTFGQGTKVEIERTVAAPSVFIFPPSDEQLKSGTASVVCLLNNFYPREAKVQWKVDNALQSGNSQESVTEQDSKDSTYSLSSTLTLSKADYEKHKVYACEVTHQGLSSPVTKSFNRGEC
notes: as for B1
B10: GpH7-A5/GpH7-B3 variant S239_08L/GpL16-k0 (antibody, human IgG1, kappa)
heavy 1: not shown
heavy 2: not shown
light: DIVMTQSPLSLPVTPGEPASISCQASESLVHSNRNTYLHWYLQKPGQSPQLLIYKVSNRFSGVPDRFSGSGSGTDFTLKISRVEAEDVGVYYCSQNTHVPPTFGQGTKVEIERTVAAPSVFIFPPSDEQLKSGTASVVCLLNNFYPREAKVQWKVDNALQSGNSQESVTEQDSKDSTYSLSSTLTLSKADYEKHKVYACEVTHQGLSSPVTKSFNRGEC
notes: as for B1
B11: GpH7-A5/GpH7-B3 variant S324_06M/GpL16-k0 (antibody, human IgG1, kappa)
heavy 1: not shown
heavy 2: not shown
light: DIVMTQSPLSLPVTPGEPASISCQASESLVHSNRNTYLHWYLQKPGQSPQLLIYKVSNRFSGVPDRFSGSGSGTDFTLKISRVEAEDVGVYYCSQNTHVPPTFGQGTKVEIERTVAAPSVFIFPPSDEQLKSGTASVVCLLNNFYPREAKVQWKVDNALQSGNSQESVTEQDSKDSTYSLSSTLTLSKADYEKHKVYACEVTHQGLSSPVTKSFNRGEC
notes: as for B1

Molecular target: T1, FcγRIIa R (extracellular domain with a …)
Test: SPR Biacore, relative binding

Point of comparison: B8, He/Con_2aR 116 % of GpH7-A5/GpH7-B3/GpL16-k0 (=100). Against it:
- B1 — lower, 104 % of GpH7-A5/GpH7-B3/GpL16-k0 (=100)
- B2 — higher, 173 % of GpH7-A5/GpH7-B3/GpL16-k0 (=100)
- B3 — lower, 115 % of GpH7-A5/GpH7-B3/GpL16-k0 (=100)
- B4 — lower, 112 % of GpH7-A5/GpH7-B3/GpL16-k0 (=100)
- B5 — lower, 109 % of GpH7-A5/GpH7-B3/GpL16-k0 (=100)
- B6 — lower, 105 % of GpH7-A5/GpH7-B3/GpL16-k0 (=100)
- B7 — lower, 105 % of GpH7-A5/GpH7-B3/GpL16-k0 (=100)
- B9 — higher, 122 % of GpH7-A5/GpH7-B3/GpL16-k0 (=100)
- B10 — higher, 122 % of GpH7-A5/GpH7-B3/GpL16-k0 (=100)
- B11 — higher, 123 % of GpH7-A5/GpH7-B3/GpL16-k0 (=100)
